Drawing on the Human Domainome abundance scans (Beltran et al. 2025), this text covers abundance fitness for 44 variants.

± gives the uncertainty stated by the source.

To fix the notation:
B1: RUN and FYVE domain-containing protein 1, residues 639 to 698; numbered along this chain, Q96T51 (parent)
chain: WLKDDEATHCRQCEKEFSISRRKHHCRNCGHIFCNTCSSNELALPSYPKPVRVCDSCHTL

This data set covers variants of B1. The data set can be described thus: abundance fitness (aPCA) (normalised: wild type 0, dead -1); higher = more abundant; growth selection in yeast, the domain comes from the species named. Particulars: Homo sapiens.
Take WLKDDEATHCRQCEKEFSIDRRKHHCRNCGHIFCNTCSSNELALPSYPKPVRVCDSCHTL: the abundance fitness amounted to 0.13 ± 0.067.

Take WLKDDEATHCRQCEKEFSIIRRKHHCRNCGHIFCNTCSSNELALPSYPKPVRVCDSCHTL: the abundance fitness amounted to 0.028 ± 0.075.

Regarding WLKDDEATHCRQCEKEFSIWRRKHHCRNCGHIFCNTCSSNELALPSYPKPVRVCDSCHTL, the abundance fitness was 0.005 ± 0.038.

WLKDDEATHCRQCEKEFSITRRKHHCRNCGHIFCNTCSSNELALPSYPKPVRVCDSCHTL: the abundance fitness worked out at 0.069 ± 0.041.

For WLKDDEATHCRQCEKEFSIVRRKHHCRNCGHIFCNTCSSNELALPSYPKPVRVCDSCHTL, the abundance fitness was -0.031 ± 0.033.

In the case of WLKDDEATHCRQCEKEFSIFRRKHHCRNCGHIFCNTCSSNELALPSYPKPVRVCDSCHTL, the abundance fitness was -0.009 ± 0.045.

As for WLKDDEATHCRQCEKEFSILRRKHHCRNCGHIFCNTCSSNELALPSYPKPVRVCDSCHTL, the abundance fitness was -0.147 ± 0.035.

With WLKDDEATHCRQCEKEFSIKRRKHHCRNCGHIFCNTCSSNELALPSYPKPVRVCDSCHTL, the abundance fitness is -0.018 ± 0.058.

In the case of WLKDDEATHCRQCEKEFSICRRKHHCRNCGHIFCNTCSSNELALPSYPKPVRVCDSCHTL, the abundance fitness was -0.369 ± 0.059.

In the case of WLKDDEATHCRQCEKEFSIQRRKHHCRNCGHIFCNTCSSNELALPSYPKPVRVCDSCHTL, the abundance fitness was 0.138 ± 0.047.

For WLKDDEATHCRQCEKEFSIERRKHHCRNCGHIFCNTCSSNELALPSYPKPVRVCDSCHTL, the abundance fitness was found to be 0.197 ± 0.037.

As to WLKDDEATHCRQCEKEFSIYRRKHHCRNCGHIFCNTCSSNELALPSYPKPVRVCDSCHTL, the abundance fitness is -0.195 ± 0.068.

WLKDDEATHCRQCEKEFSIARRKHHCRNCGHIFCNTCSSNELALPSYPKPVRVCDSCHTL: the abundance fitness was determined as 0.068 ± 0.035.

For WLKDDEATHCRQCEKEFSIPRRKHHCRNCGHIFCNTCSSNELALPSYPKPVRVCDSCHTL, the abundance fitness is -0.061 ± 0.048.

Take WLKDDEATHCRQCEKEFSIHRRKHHCRNCGHIFCNTCSSNELALPSYPKPVRVCDSCHTL: the abundance fitness was -0.108 ± 0.096.

Turning to WLKDDEATHCRQCEKEFKISRRKHHCRNCGHIFCNTCSSNELALPSYPKPVRVCDSCHTL, the abundance fitness was -0.087 ± 0.047.

Regarding WLKDDEATHCRQCEKEFMISRRKHHCRNCGHIFCNTCSSNELALPSYPKPVRVCDSCHTL, the abundance fitness is -0.23 ± 0.054.

In the case of WLKDDEATHCRQCEKEFNISRRKHHCRNCGHIFCNTCSSNELALPSYPKPVRVCDSCHTL, the abundance fitness was -0.12 ± 0.08.

As to WLKDDEATHCRQCEKEFAISRRKHHCRNCGHIFCNTCSSNELALPSYPKPVRVCDSCHTL, the abundance fitness was -0.33 ± 0.037.

Regarding WLKDDEATHCRQCEKEFDISRRKHHCRNCGHIFCNTCSSNELALPSYPKPVRVCDSCHTL, the abundance fitness was determined as 0.06 ± 0.055.

Regarding WLKDDEATHCRQCEKEFIISRRKHHCRNCGHIFCNTCSSNELALPSYPKPVRVCDSCHTL, the abundance fitness was -0.144 ± 0.057.

In the case of WLKDDEATHCRQCEKEFQISRRKHHCRNCGHIFCNTCSSNELALPSYPKPVRVCDSCHTL, the abundance fitness is -0.256 ± 0.075.

For the variant WLKDDEATHCRQCEKEFLISRRKHHCRNCGHIFCNTCSSNELALPSYPKPVRVCDSCHTL, the abundance fitness is -0.423 ± 0.042.

With WLKDDEATHCRQCEKEFHISRRKHHCRNCGHIFCNTCSSNELALPSYPKPVRVCDSCHTL, the abundance fitness was -0.408 ± 0.11.

Regarding WLKDDEATHCRQCEKEFFISRRKHHCRNCGHIFCNTCSSNELALPSYPKPVRVCDSCHTL, the abundance fitness is -0.352 ± 0.057.

Turning to WLKDDEATHCRQCEKEFGISRRKHHCRNCGHIFCNTCSSNELALPSYPKPVRVCDSCHTL, the abundance fitness is -0.049 ± 0.028.

As to WLKDDEATHCRQCEKEFPISRRKHHCRNCGHIFCNTCSSNELALPSYPKPVRVCDSCHTL, the abundance fitness is -0.398 ± 0.056.

As for WLKDDEATHCRQCEKEFVISRRKHHCRNCGHIFCNTCSSNELALPSYPKPVRVCDSCHTL, the abundance fitness was -0.247 ± 0.033.

Turning to WLKDDEATHCRQCEKEFTISRRKHHCRNCGHIFCNTCSSNELALPSYPKPVRVCDSCHTL, the abundance fitness was 0.05 ± 0.047.

On to WLKDDEATHCRQCEKEFCISRRKHHCRNCGHIFCNTCSSNELALPSYPKPVRVCDSCHTL, for which the abundance fitness amounted to 0.007 ± 0.046.

As to WLKDDEATHCRQCEKEFYISRRKHHCRNCGHIFCNTCSSNELALPSYPKPVRVCDSCHTL, the abundance fitness is -0.501 ± 0.093.

In the case of WLKDDEATHCRQCEKEFWISRRKHHCRNCGHIFCNTCSSNELALPSYPKPVRVCDSCHTL, the abundance fitness was -0.322 ± 0.048.

For the variant WLKDDEATHCRQCEKELSISRRKHHCRNCGHIFCNTCSSNELALPSYPKPVRVCDSCHTL, the abundance fitness was -0.218 ± 0.034.

Consider WLKDDEATHCRQCEKEMSISRRKHHCRNCGHIFCNTCSSNELALPSYPKPVRVCDSCHTL, for which the abundance fitness is -0.571 ± 0.074.

For the variant WLKDDEATHCRQCEKEPSISRRKHHCRNCGHIFCNTCSSNELALPSYPKPVRVCDSCHTL, the abundance fitness is -0.624 ± 0.082.

With WLKDDEATHCRQCEKEYSISRRKHHCRNCGHIFCNTCSSNELALPSYPKPVRVCDSCHTL, the abundance fitness is -0.769 ± 0.12.

Take WLKDDEATHCRQCEKESSISRRKHHCRNCGHIFCNTCSSNELALPSYPKPVRVCDSCHTL: the abundance fitness is -0.709 ± 0.06.

WLKDDEATHCRQCEKENSISRRKHHCRNCGHIFCNTCSSNELALPSYPKPVRVCDSCHTL: the abundance fitness was -1.02 ± 0.2.

For the variant WLKDDEATHCRQCEKEQSISRRKHHCRNCGHIFCNTCSSNELALPSYPKPVRVCDSCHTL, the abundance fitness was -0.765 ± 0.084.

WLKDDEATHCRQCEKETSISRRKHHCRNCGHIFCNTCSSNELALPSYPKPVRVCDSCHTL: the abundance fitness is -0.574 ± 0.063.

Turning to WLKDDEATHCRQCEKEVSISRRKHHCRNCGHIFCNTCSSNELALPSYPKPVRVCDSCHTL, the abundance fitness was -0.662 ± 0.051.

Take WLKDDEATHCRQCEKEKSISRRKHHCRNCGHIFCNTCSSNELALPSYPKPVRVCDSCHTL: the abundance fitness is -0.676 ± 0.087.

In the case of WLKDDEATHCRQCEKEWSISRRKHHCRNCGHIFCNTCSSNELALPSYPKPVRVCDSCHTL, the abundance fitness is -0.381 ± 0.04.

Take WLKDDEATHCRQCEKERSISRRKHHCRNCGHIFCNTCSSNELALPSYPKPVRVCDSCHTL: the abundance fitness is -0.677 ± 0.042.
